Measured values as given in IntAct's records for PubMed 31515488.

B1: Keratin, type I cytoskeletal 13 (Homo sapiens), P13646 (parent)
chain: MSLRLQSSSASYGGGFGGGSCQLGGGRGVSTCSTRFVSGGSAGGYGGGVSCGFGGGAGSGFGGGYGGGLGGGYGGGLGGGFGGGFAGGFVDFGACDGGLLTGNEKITMQNLNDRLASYLEKVRALEEANADLEVKIRDWHLKQSPASPERDYSPYYKTIEELRDKILTATIENNRVILEIDNARLAADDFRLKYENELALRQSVEADINGLRRVLDELTLSKTDLEMQIESLNEELAYMKKNHEEEMKEFSNQVVGQVNVEMDATPGIDLTRVLAEMREQYEAMAERNRRDAEEWFHTKSAELNKEVSTNTAMIQTSKTEITELRRTLQGLEIELQSQLSMKAGLENTVAETECRYALQLQQIQGLISSIEAQLSELRSEMECQNQEYKMLLDIKTRLEQEIATYRSLLEGQDAKMIGFPSSAGSVSPRSTSVTTTSSASVTTTSNASGRRTSDVRRP
B2: Tuftelin-interacting protein 11 (Homo sapiens), Q9UBB9 (parent)
chain: MSLSHLYRDGEGRIDDDDDERENFEITDWDLQNEFNPNRQRHWQTKEEATYGVWAERDSDDERPSFGGKRARDYSAPVNFISAGLKKGAAEEAELEDSDDEEKPVKQDDFPKDFGPRKLKTGGNFKPSQKGFAGGTKSFMDFGSWERHTKGIGQKLLQKMGYVPGRGLGKNAQGIINPIEAKQRKGKGAVGAYGSERTTQSMQDFPVVDSEEEAEEEFQKELSQWRKDPSGSKKKPKYSYKTVEELKAKGRISKKLTAPQKELSQVKVIDMTGREQKVYYSYSQISHKHNVPDDGLPLQSQQLPQSGKEAKAPGFALPELEHNLQLLIDLTEQEIIQNDRQLQYERDMVVNLFHELEKMTEVLDHEERVISNLSKVLEMVEECERRMQPDCSNPLTLDECARIFETLQDKYYEEYRMSDRVDLAVAIVYPLMKEYFKEWDPLKDCTYGTEIISKWKSLLENDQLLSHGGQDLSADAFHRLIWEVWMPFVRNIVTQWQPRNCDPMVDFLDSWVHIIPVWILDNILDQLIFPKLQKEVENWNPLTDTVPIHSWIHPWLPLMQARLEPLYSPIRSKLSSALQKWHPSDSSAKLILQPWKDVFTPGSWEAFMVKNIVPKLGMCLGELVINPHQQHMDAFYWVIDWEGMISVSSLVGLLEKHFFPKWLQVLCSWLSNSPNYEEITKWYLGWKSMFSDQVLAHPSVKDKFNEALDIMNRAVSSNVGAYMQPGARENIAYLTHTERRKDFQYEAMQERREAENMAQRGIGVAASSVPMNFKDLIETKAEEHNIVFMPVIGKRHEGKQLYTFGRIVIYIDRGVVFVQGEKTWVPTSLQSLIDMAK
partner: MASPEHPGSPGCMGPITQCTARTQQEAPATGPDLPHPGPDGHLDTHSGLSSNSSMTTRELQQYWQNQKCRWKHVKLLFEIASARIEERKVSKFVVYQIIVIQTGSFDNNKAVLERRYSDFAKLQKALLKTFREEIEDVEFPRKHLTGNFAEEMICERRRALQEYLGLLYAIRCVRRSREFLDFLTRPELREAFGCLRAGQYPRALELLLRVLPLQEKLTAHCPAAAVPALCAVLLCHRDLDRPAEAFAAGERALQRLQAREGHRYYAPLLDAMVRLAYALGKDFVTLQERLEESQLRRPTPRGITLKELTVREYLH
B3: Tuftelin-interacting protein 11 (Homo sapiens), Q9UBB9 (parent)
chain: B2 chain
partner: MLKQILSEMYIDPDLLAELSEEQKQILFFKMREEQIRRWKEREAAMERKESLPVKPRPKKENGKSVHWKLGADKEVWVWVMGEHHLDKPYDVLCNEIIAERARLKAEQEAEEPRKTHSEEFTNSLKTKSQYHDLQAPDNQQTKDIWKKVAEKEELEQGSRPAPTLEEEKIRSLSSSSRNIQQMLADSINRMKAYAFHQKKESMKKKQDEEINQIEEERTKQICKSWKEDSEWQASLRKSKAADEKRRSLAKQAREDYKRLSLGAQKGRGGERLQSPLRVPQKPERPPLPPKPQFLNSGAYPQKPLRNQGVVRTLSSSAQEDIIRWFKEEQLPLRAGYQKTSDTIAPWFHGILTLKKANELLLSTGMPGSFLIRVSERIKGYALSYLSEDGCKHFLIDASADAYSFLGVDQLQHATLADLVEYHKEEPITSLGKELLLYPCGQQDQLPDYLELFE
B4: Max-like protein X (Homo sapiens), Q9UH92 (parent)
chain: MTEPGASPEDPWVKASPVGAHAGEGRAGRARARRGAGRRGASLLSPKSPTLSVPRGCREDSSHPACAKVEYAYSDNSLDPGLFVESTRKGSVVSRANSIGSTSASSVPNTDDEDSDYHQEAYKESYKDRRRRAHTQAEQKRRDAIKRGYDDLQTIVPTCQQQDFSIGSQKLSKAIVLQKTIDYIQFLHKEKKKQEEEVSTLRKDVTALKIMKVNYEQIVKAHQDNPHEGEDQVSDQVKFNVFQGIMDSLFQSFNASISVASFQELSACVFSWIEEHCKPQTLREIVIGVLHQLKNQLY
B5: Copper homeostasis protein cutC homolog (Homo sapiens), Q9NTM9 (parent)
chain: MKRQGASSERKRARIPSGKAGAANGFLMEVCVDSVESAVNAERGGADRIELCSGLSEGGTTPSMGVLQVVKQSVQIPVFVMIRPRGGDFLYSDREIEVMKADIRLAKLYGADGLVFGALTEDGHIDKELCMSLMAICRPLPVTFHRAFDMVHDPMAALETLLTLGFERVLTSGCDSSALEGLPLIKRLIEQAKGRIVVMPGGGITDRNLQRILEGSGATEFHCSARSTRDSGMKFRNSSVAMGASLSCSEYSLKVTDVTKVRTLNAIAKNILV
partner: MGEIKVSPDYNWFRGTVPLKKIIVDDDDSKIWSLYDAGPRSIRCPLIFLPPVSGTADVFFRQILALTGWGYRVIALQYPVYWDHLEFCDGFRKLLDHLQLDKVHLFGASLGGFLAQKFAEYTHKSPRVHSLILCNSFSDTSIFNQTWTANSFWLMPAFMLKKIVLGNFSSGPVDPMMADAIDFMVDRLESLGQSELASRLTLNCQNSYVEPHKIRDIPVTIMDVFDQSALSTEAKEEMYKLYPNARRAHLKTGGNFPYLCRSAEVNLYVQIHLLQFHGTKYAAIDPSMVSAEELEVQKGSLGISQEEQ
B6: Melanoma-associated antigen 4 (Homo sapiens), P43358 (parent)
chain: MSSEQKSQHCKPEEGVEAQEEALGLVGAQAPTTEEQEAAVSSSSPLVPGTLEEVPAAESAGPPQSPQGASALPTTISFTCWRQPNEGSSSQEEEGPSTSPDAESLFREALSNKVDELAHFLLRKYRAKELVTKAEMLERVIKNYKRCFPVIFGKASESLKMIFGIDVKEVDPASNTYTLVTCLGLSYDGLLGNNQIFPKTGLLIIVLGTIAMEGDSASEEEIWEELGVMGVYDGREHTVYGEPRKLLTQDWVQENYLEYRQVPGSNPARYEFLWGPRALAETSYVKVLEHVVRVNARVRIAYPSLREAALLEEEEGV
partner: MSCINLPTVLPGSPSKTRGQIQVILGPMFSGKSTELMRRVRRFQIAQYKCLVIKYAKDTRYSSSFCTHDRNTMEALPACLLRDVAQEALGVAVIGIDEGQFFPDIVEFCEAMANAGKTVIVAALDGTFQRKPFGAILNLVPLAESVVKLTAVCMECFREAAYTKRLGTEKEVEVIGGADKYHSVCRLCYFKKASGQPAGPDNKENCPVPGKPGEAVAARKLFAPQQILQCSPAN
B7: Protein DBF4 homolog B (Homo sapiens), Q8NFT6 (parent)
chain: MSEPGKGDDCLELESSMAESRLRAPDLGVSRCLGKCQKNSPGARKHPFSGKSFYLDLPAGKNLQFLTGAIQQLGGVIEGFLSKEVSYIVSSRREVKAESSGKSHRGCPSPSPSEVRVETSAMVDPKGSHPRPSRKPVDSVPLSRGKELLQKAIRNQGSISGGGSGGSSSLLTNARSWGVRILHVDEMMMHVQQLSLASLCVKKQQPKKPEGTCPAAESRTRKVARLKAPFLKIEDESRKFRPFHHQFKSFPEISFLGPKDASPFEAPTTLGSMHHTRESKDGEPSPRSAAHTMPRRKKGYCECCQEAFEELHVHLQSAQHRSFALEAHLYAEVDRIIAQLSHSFADIPFQAGLPRWSGSPASDCDPLCPETLHPHQPSHPRAASPRIRKEDSCQASVTQGRAAGQQRWTESLDGVMGPPASHTCVSATTLLPALPKGSREQGCLCPCPASFTQSHLVTSLALLPGEWSPAEDMPLHPSQENSFAPADIPVKGPLLFPEARPWLMSARCWVRPFPFVTWGCLIPHDTTPLHEEVSPCPCLRLGYLYLLLTQSLWCRVRVPSLSTAGPIPRTSHPCTLAFPSYLNDHDLGHLCQAKPQGWNTPQPFLHCGFLAVDSG
B8: Syntaxin-3 (Homo sapiens), Q13277 (parent)
chain: MKDRLEQLKAKQLTQDDDTDAVEIAIDNTAFMDEFFSEIEETRLNIDKISEHVEEAKKLYSIILSAPIPEPKTKDDLEQLTTEIKKRANNVRNKLKSMEKHIEEDEVRSSADLRIRKSQHSVLSRKFVEVMTKYNEAQVDFRERSKGRIQRQLEITGKKTTDEELEEMLESGNPAIFTSGIIDSQISKQALSEIEGRHKDIVRLESSIKELHDMFMDIAMLVENQGEMLDNIELNVMHTVDHVEKARDETKKAVKYQSQARKKLIIIIVLVVVLLGILALIIGLSVGLN
partner: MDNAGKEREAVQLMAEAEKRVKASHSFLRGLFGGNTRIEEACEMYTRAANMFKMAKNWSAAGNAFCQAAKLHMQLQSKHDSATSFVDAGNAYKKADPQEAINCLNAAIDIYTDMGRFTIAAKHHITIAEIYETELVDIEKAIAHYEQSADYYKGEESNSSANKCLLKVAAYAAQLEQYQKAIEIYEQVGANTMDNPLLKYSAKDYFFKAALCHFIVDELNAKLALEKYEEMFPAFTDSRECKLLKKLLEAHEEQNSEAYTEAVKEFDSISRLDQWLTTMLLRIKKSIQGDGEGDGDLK

Variants of: B1
Conditions: with k22e_human KRT2, P35908
Sequence of k22e_human KRT2, P35908 (P35908 whole entry): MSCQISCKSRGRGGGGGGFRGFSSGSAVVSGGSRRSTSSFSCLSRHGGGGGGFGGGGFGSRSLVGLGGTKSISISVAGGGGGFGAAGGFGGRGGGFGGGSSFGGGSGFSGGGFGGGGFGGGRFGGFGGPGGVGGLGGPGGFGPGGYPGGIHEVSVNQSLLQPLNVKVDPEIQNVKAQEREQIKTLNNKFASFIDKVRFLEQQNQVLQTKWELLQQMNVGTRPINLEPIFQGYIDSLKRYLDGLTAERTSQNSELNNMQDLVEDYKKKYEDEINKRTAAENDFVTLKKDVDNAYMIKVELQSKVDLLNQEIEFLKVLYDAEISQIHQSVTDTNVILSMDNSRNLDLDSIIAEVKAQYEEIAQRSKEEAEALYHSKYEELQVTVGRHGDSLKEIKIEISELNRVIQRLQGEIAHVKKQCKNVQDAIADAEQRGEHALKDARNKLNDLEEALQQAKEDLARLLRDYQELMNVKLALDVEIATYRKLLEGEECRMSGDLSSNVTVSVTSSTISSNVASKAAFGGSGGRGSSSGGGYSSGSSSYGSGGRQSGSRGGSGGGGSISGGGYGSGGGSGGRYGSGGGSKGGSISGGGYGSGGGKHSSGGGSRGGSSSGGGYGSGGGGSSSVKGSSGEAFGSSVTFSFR

Row | Variant | effect of a mutation on the interaction
1 | R355H | with no effect

Variants of: B1
Conditions: with k2c4_human KRT4, P19013
Sequence of k2c4_human KRT4, P19013 (P19013 whole entry): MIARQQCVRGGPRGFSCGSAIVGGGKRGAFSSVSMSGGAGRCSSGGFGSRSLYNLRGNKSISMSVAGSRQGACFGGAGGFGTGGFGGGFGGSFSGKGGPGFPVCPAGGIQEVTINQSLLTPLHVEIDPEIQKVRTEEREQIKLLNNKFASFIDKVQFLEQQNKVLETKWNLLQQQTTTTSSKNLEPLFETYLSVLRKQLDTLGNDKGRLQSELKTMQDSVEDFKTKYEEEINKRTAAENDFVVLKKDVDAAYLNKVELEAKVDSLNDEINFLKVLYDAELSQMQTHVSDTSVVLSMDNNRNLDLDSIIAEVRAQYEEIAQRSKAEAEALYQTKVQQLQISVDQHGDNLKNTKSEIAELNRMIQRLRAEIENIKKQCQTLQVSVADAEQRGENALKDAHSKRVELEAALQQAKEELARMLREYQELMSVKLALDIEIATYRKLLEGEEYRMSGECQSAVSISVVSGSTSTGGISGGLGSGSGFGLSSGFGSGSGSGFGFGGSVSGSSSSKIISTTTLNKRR

Row | Variant | effect of a mutation on the interaction
2 | R355H | with no effect

Variants of: B1
Conditions: with KRT6A

Row | Variant | effect of a mutation on the interaction
3 | R355H | with no effect

Variants of: B1
Conditions: with ccnc_human CCNC

Row | Variant | effect of a mutation on the interaction
4 | R355H | with no effect

Variants of: B2
Conditions: with snx20_human SNX20, Q7Z614

Row | Variant | effect of a mutation on the interaction
5 | R8Q | with no effect
6 | S688L | with no effect

Variants of: B3
Conditions: with sh24a_human SH2D4A

Row | Variant | effect of a mutation on the interaction
7 | S688L | with no effect
8 | R8Q | with no effect

Variants of: B4
Conditions: with gbrl2_human GABARAPL2, P60520
Sequence of gbrl2_human GABARAPL2, P60520 (P60520 whole entry): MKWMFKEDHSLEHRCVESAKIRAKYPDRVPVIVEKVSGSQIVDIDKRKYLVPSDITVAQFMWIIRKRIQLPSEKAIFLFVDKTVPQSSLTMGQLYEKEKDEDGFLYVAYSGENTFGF

Row | Variant | effect of a mutation on the interaction
9 | Q223R | with no effect

Variants of: B5
Conditions: with spg21_human SPG21, Q9NZD8

Row | Variant | effect of a mutation on the interaction
10 | P77L | disrupting interaction strength

Variants of: B6
Conditions: with kith_human TK1, P04183

Row | Variant | effect of a mutation on the interaction
11 | S41F | with no effect

Variants of: B7
Conditions: with tri23_human TRIM23, P36406
Sequence of tri23_human TRIM23, P36406 (P36406 whole entry): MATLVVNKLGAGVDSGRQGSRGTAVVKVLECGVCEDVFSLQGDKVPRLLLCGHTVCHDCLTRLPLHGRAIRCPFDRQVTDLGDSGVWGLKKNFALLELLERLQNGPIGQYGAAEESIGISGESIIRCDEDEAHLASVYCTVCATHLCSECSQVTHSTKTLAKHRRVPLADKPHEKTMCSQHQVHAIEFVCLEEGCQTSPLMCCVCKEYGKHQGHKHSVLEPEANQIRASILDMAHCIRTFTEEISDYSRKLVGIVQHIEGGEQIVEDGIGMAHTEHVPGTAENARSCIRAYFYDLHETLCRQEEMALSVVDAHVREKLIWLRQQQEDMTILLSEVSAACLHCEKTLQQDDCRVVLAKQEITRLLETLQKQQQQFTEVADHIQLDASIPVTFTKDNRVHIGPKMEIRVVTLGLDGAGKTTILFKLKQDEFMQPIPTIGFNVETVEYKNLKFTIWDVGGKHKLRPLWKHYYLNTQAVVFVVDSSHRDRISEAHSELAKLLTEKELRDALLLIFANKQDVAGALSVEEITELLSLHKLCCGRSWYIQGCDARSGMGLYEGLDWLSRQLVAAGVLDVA

Row | Variant | effect of a mutation on the interaction
12 | L199S | disrupting interaction strength

Variants of: B8
Conditions: with snab_human NAPB

Row | Variant | effect of a mutation on the interaction
13 | G276S | with no effect
